Assay results from patent US8241610B2, “Adjuvant combinations of liposomes and mycobacterial lipids for immunization compositions and vaccines” (Statens Serum Institut, priority 2003, dated 2012).

B1: OVA: Ovalbumin, Sigma Aldrich; given in total lipids/DDA (protein, UniProt P01012 2-386, looked up)
Ovalbumin: GSIGAASMEFCFDVFKELKVHHANENIFYCPIAIMSALAMVYLGAKDSTRTQINKVVRFDKLPGFGDSIEAQCGTSVNVHSSLRDILNQITKPNDVYSFSLASRLYAEERYPILPEYLQCVKELYRGGLEPINFQTAADQARELINSWVESQTNGIIRNVLQPSSVDSQTAMVLVNAIVFKGLWEKAFKDEDTQAMPFRVTEQESKPVQMMYQIGLFRVASMASEKMKILELPFASGTMSMLVLLPDEVSGLEQLESIINFEKLTEWTSSNVMEERKIKVYLPRMKMEEKYNLTSVLMAMGITDVFSSSANLSGISSAESLKISQAVHAAHAEINEAGREVVGSAEAGVDAASVSEEFRADHPFLFCIKHIATNAVLFFGRCVSP

Key:
blood lymphocytes = assay: IFN-gamma release from blood lymphocytes of immunized mice re-stimulated in vitro with antigen (ELISA); conditions: mouse, in vivo, sc
antigen-specific IgG = system: antigen-specific IgG; set-up: species or system mice; conditions: mouse, in vivo, sc

Molecule | Immune response: release of IFN-gamma from blood lymphocytes (blood lymphocytes) | IgG1, antigen-specific levels (midpoint titres) (antigen-specific IgG) | IgG2a, antigen-specific levels (midpoint titres) (antigen-specific IgG)
Tetanus toxoid: Tetanus toxoid from Statens Serum Institut; given in total lipids/DDA | 52500 ± 13500 |  | 
B1 | 793 ± 81 | 2500 | <100
